Data on 2 molecules can be found in paper PMC8184850, “Cryo-EM structure of TFIIH/Rad4–Rad23–Rad33 in damaged DNA opening in nucleotide excision repair” (Nature Communications, 2021).

Common to all, as to conditions: both partners purified
Test [1] deals with T1, Rad4 (yeast, UniProt P14736 1-754).
T1 construct: Rad4 (XPC homologue), yeast; Stood in the assays as part of Rad4–Rad23–Rad33; written alone for the contacts of the subunit; also called yeast homologue of XPC; source: Hi5 insect cells, co-expressed with Rad23, purified as the Rad4–Rad23 complex
T1 sequence (looked up): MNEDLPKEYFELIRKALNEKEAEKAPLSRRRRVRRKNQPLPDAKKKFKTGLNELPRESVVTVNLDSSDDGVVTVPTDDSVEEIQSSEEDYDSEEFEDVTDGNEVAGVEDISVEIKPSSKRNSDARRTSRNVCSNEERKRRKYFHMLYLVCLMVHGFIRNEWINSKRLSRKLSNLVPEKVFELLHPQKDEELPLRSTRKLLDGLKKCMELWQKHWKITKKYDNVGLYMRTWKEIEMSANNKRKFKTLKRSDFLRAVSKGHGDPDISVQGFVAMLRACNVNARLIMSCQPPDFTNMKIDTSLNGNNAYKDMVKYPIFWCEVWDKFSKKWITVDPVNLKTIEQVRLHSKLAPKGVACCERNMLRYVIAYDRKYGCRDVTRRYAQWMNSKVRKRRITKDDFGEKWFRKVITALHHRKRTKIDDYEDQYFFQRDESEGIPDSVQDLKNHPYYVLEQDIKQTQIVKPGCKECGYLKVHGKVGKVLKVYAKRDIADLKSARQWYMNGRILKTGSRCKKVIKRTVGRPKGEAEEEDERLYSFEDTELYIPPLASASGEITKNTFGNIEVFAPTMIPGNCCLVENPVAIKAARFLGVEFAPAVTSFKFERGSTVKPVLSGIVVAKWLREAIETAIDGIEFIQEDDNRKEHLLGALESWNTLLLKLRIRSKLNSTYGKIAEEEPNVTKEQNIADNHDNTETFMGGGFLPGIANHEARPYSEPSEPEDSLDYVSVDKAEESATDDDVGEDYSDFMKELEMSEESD
In words: cryo-EM structure; coreTFIIH and Rad4–Rad23–Rad33 on −24*/+24 AAF-DNA with ATP, glycerol gradient with glutaraldehyde; Map 1 3.86 Å (TFIIH), Map 2 9.2 Å, Map 3 7.9 Å; Rad4, Rad33 and the Tfb1 PH domain placed by rigid-body docking of known structures or homology models.

The target of test [2] is T2, Ssl2 (Saccharomyces cerevisiae, UniProt Q00578 1-843).
T2 construct: Ssl2 (XPB homologue), subunit of yeast coreTFIIH; C-Ssl2 549–776, C-terminal region 771–843 as printed; Stood in the assays as part of coreTFIIH; also called yeast homologue of XPB; source: purified from yeast as a subunit of coreTFIIH
T2 sequence (looked up): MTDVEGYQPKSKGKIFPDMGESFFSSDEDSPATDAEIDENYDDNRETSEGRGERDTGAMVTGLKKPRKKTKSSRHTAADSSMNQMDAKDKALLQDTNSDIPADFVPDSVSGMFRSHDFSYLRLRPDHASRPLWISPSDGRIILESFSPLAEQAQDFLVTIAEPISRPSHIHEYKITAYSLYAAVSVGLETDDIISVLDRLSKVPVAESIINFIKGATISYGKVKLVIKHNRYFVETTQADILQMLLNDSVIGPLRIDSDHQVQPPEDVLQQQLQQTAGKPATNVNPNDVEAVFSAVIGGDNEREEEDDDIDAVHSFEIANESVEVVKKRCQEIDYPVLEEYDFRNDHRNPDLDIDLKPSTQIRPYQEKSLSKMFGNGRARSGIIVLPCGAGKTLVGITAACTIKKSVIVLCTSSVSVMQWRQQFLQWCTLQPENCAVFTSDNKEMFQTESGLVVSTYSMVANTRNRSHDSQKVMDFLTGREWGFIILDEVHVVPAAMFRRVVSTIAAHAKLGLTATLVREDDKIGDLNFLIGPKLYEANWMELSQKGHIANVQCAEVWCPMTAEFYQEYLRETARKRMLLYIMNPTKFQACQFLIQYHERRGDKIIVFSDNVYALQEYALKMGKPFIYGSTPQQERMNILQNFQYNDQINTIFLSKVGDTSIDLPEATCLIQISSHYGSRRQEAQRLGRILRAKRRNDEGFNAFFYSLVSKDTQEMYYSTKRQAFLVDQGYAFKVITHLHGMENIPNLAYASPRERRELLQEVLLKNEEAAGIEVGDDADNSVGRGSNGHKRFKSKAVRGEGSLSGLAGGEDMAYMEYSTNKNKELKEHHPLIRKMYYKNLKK
The test is described as above.

Test [3] deals with T3, Full-length Rad4–Rad23 complex (yeast, UniProt P14736 1-754; P32628 1-398).
T3 construct: Rad4 (XPC homologue), yeast; Rad23 (RAD23B homologue), yeast; also called Rad4–23; yeast homologue of XPC–RAD23B
T3 sequence (looked up) 1: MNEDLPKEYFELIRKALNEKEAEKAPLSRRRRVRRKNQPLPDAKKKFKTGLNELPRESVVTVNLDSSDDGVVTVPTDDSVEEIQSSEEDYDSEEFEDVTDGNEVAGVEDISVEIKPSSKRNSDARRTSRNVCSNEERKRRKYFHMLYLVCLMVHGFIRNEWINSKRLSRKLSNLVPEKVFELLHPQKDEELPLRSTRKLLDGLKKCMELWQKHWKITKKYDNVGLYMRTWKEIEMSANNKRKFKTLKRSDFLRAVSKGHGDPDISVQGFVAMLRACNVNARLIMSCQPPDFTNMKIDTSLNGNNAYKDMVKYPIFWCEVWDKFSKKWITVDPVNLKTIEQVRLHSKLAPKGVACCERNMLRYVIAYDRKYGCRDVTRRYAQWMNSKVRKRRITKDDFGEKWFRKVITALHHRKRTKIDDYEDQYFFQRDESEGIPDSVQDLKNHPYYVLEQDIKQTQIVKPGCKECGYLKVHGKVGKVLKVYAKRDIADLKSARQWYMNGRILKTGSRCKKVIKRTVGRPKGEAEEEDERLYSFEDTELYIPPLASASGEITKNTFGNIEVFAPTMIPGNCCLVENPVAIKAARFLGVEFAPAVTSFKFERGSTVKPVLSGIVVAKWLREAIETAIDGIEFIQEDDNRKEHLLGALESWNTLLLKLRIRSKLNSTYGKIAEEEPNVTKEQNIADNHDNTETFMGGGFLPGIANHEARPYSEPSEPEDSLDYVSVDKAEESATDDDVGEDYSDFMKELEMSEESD
T3 sequence (looked up) 2: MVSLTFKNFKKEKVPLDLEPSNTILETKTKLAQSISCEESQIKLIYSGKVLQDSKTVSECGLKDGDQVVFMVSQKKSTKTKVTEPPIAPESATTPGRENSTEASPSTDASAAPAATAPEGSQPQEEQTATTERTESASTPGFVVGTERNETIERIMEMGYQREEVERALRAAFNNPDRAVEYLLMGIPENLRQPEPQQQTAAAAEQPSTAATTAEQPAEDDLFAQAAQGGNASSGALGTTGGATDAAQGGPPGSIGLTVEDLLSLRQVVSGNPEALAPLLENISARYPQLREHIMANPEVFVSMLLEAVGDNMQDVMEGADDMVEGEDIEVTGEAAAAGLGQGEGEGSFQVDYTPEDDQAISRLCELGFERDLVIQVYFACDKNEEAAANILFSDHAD
Briefly: co-sedimentation; 10–40% glycerol gradient (20 mM HEPES, 150 mM potassium acetate, 2 mM magnesium acetate, 4 mM DTT, 2 mM ATP or AMP-PNP), 52,000 rpm 6 h 35 min, 4 °C; Rad4–Rad23–Rad33 pre-assembled on −24*/+24 AAF-DNA, then added to TFIIH; fractions by SDS-PAGE.

Test [4] addresses T4, Tfb2 (yeast, UniProt Q02939 1-513).
T4 construct: Tfb2 (p52 homologue), subunit of yeast coreTFIIH; Tfb2C 412–513 as printed; Stood in the assays as part of coreTFIIH; also called yeast homologue of p52; source: purified from yeast as a subunit of coreTFIIH
T4 sequence (looked up): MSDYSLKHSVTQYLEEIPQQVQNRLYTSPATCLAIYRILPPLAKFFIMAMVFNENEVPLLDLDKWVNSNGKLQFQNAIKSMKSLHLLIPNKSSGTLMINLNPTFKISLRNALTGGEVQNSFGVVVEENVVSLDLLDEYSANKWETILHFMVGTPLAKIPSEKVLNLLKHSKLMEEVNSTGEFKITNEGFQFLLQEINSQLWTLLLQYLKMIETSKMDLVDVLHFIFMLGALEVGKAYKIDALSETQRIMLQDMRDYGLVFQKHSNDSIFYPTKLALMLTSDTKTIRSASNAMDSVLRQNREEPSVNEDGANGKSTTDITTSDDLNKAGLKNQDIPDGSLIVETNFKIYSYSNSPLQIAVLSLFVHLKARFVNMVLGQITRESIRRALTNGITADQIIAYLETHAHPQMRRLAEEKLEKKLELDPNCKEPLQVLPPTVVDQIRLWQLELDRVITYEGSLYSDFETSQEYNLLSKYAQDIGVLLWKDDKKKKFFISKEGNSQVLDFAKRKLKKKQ
In words: cryo-EM structure; coreTFIIH and Rad4–Rad23–Rad33 on −24*/+24 AAF-DNA with ATP, glycerol gradient with glutaraldehyde; Map 1 3.86 Å (TFIIH), Map 2 9.2 Å, Map 3 7.9 Å; Rad4, Rad33 and the Tfb1 PH domain placed by rigid-body docking of known structures or homology models.

B1: Rad33 (natural protein, yeast)
chain: MSKSTNVSYERVELFENPKVPIEVEDEILEKYAESSLDHDMTVNELPRFFKDLQLEPTIWKLVRNEDVIIEGTDVIDFTKLVRCTCQLLILMNNLTVIDDLWSMLIRNCGRDVDFPQVALRDHVLSVKDLQKISNLIGADQSSGTIEMISCATDGKRLFMTYLDFGCVLGKLGYLKM
notes: Rad33 (CETN2 homologue), yeast; plasmid pETDuet-RAD33; also called yeast homologue of CETN2; source: E. coli Rosetta(DE3), purified (HisTrap, Q column)
For B1, the binding result in test [1], in test [2] and in test [3] was “binds” each time.

B2: Tfb5 (natural protein, yeast, UniProt Q3E7C1 1-72, looked up)
chain: MARARKGALVQCDPSIKALILQIDAKMSDIVLEELDDTHLLVNPSKVEFVKHELNRLLSKNIYNPMDEEENQ
notes: Tfb5 (p8 homologue), subunit of yeast coreTFIIH; Stood in the assays as part of coreTFIIH; also called yeast homologue of p8; source: purified from yeast as a subunit of coreTFIIH
For the molecule B2, in test [4], the binding result is on record as “binds”.
